Laboratory results from the supplement of paper PMC12042874.
± gives the uncertainty stated by the source.

Assay: amyloid nucleation score (Sup35N fusion, yeast selection) (log enrichment); library NNK2; higher = more nucleation; inactive = no reads after selection
How it was run: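 Growth for 7 days at 30°C on medium lacking adenine and uracil followed a 24-hour induction with 100 μM copper sulfate of psi-negative yeast expressing peptides of 20 random codons fused to Sup35N. Input and output plasmid inserts were sequenced with Illumina, and sequences with under 100 input reads were excluded. Nucleation score is the DiMSum log enrichment of output over input reads, centred on the mode score of non-aggregating sequences.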

KADLRKHSLDIGSCADGIRI and KAGVKLSLGNCRYSTL are within error of each other in amyloid nucleation score: 0.416 ± 0.8 for the first, 0.527 ± 0.8 for the second.

KAHIAVDGIMA and KATPFAGTLRVYSTVTYCAI are within error of each other in amyloid nucleation score: 0.117 ± 0.33 for the first, 0.148 ± 1 for the second.

Going from KAWLSSKITKM to KAYLCSFMMCFLL, the amyloid nucleation score rises from 0.131 ± 1 to 6.803 ± 0.056.

First: KCLVSMVLMYAVTMIWDAPD
Second: KCMQLAAFTRLLWTGPSARG
The amyloid nucleation score of the first is lower: 1.35 ± 0.3 for the first, 1.85 ± 0.1 for the second.

KCVLLWWVIKYVCVDTDAAV and KDDSQLVLRDRPSRLWRLKE are within error of each other in amyloid nucleation score: -0.174 ± 0.74 for the first, 0.804 ± 0.53 for the second.

KDGLTISRIQITLIKRTLVV and KDHRSLSGRDMFRGTLVVVM are within error of each other in amyloid nucleation score: 0.035 ± 0.74 for the first, 0.328 ± 0.19 for the second.

Compared with KDRSQGKCLLGQQRQ, KEPGERRYGTAASMNYTKVD is lower in amyloid nucleation score: 0.782 ± 0.15 for the first, -0.71 ± 1 for the second.

KEPYHNYI and KERLAFCMYGLGVDYVTFGN are within error of each other in amyloid nucleation score: 0.179 ± 0.56 for the first, 0.497 ± 0.57 for the second.

KERNRRAEAGSYNYVGVWVT and KFAKSSNKDHHDFYAVELGT are within error of each other in amyloid nucleation score: 0.951 ± 0.81 for the first, -0.289 ± 0.63 for the second.

First: KFFMPTYN
Second: KFMCSELSNFCINCILRLVV
The amyloid nucleation score of the first is higher: 1.58 ± 0.17 for the first, -0.19 ± 1.1 for the second.

KGCVMSY and KGFRMRAWWRVGVLDCDAGT are within error of each other in amyloid nucleation score: -0.578 ± 1.1 for the first, 0.082 ± 1.1 for the second.

Going from KGGWYNNYGAVNKNGWCSDK to KGLASKAHSIGLCT, the amyloid nucleation score rises from -0.501 ± 1.1 to 1.01 ± 0.25.

KGNTIKSCSRMMLHRQHVW and KHEIQVS are within error of each other in amyloid nucleation score: -0.485 ± 0.45 for the first, 0.33 ± 0.56 for the second.

KHGSMVICKPAIYTVLT and KHYAL are within error of each other in amyloid nucleation score: -0.021 ± 0.63 for the first, 0.169 ± 0.8 for the second.

First: KIIVHYIYRRIRLCDSNLKR
Second: KILALATRLKIFSSLVYIRS
The amyloid nucleation score of the first is higher: 8.398 ± 0.046 for the first, 0.338 ± 0.51 for the second.

KILRVKRQGRGSRNR and KISCKKNWGAYVPF are within error of each other in amyloid nucleation score: -0.055 ± 0.55 for the first, -0.594 ± 1.1 for the second.

KITAGSGVL and KIVVSFWLLPCFGKLFFPSV are within error of each other in amyloid nucleation score: 0.904 ± 0.81 for the first, -0.618 ± 0.76 for the second.

Compared with KKEVINWYFLTYAGLEKLCL, KKSSECHKSEG is higher in amyloid nucleation score: -0.715 ± 0.48 for the first, 0.361 ± 0.45 for the second.

KLCKVYVRRRSIICWGNCVP and KLDTLRFCVGAHLGTPTLCW are within error of each other in amyloid nucleation score: -0.481 ± 1.1 for the first, 0.499 ± 0.34 for the second.

First: KLDVAAFVKVAE
Second: KLFFTDGFLYGNPLLSDGLD
The amyloid nucleation score of the first is higher: 6.142 ± 0.039 for the first, -0.58 ± 0.39 for the second.

Going from KLHRSESVHVICTVCS to KLHVGNCSFSKPSPAQAGSL, the amyloid nucleation score falls from 1.17 ± 0.3 to 0.34 ± 0.29.

First: KLIMFCDMLKVRSNNFRSRK
Second: KLISCGCVLADWNMGYP
The amyloid nucleation score of the first is higher: 5.55 ± 0.077 for the first, 3.76 ± 0.12 for the second.

Compared with KLLFCERGKSGSNQSSLTKT, KLNLMCWDGLYLDMKIDSNL is higher in amyloid nucleation score: -0.523 ± 0.54 for the first, 3.94 ± 0.07 for the second.

KLNNVRLGGERFDLRTLGLR and KLRPNLCKHYMTFMETSS are within error of each other in amyloid nucleation score: -0.104 ± 0.42 for the first, 0.175 ± 0.53 for the second.

First: KLWAPWYNLWLFALTIVCDI
Second: KNCFMIV
The amyloid nucleation score of the first is higher: 0.343 ± 0.64 for the first, -2.26 ± 1 for the second.

Compared with KNDGEVMKSVFKDRHCCART, KNKQRYSPIITLLVTKSVAF is higher in amyloid nucleation score: -0.565 ± 0.48 for the first, 2.67 ± 0.056 for the second.

Going from KNLVDWVYYPPMH to KPFELEIRGKGQRHVEVV, the amyloid nucleation score rises from -1.23 ± 0.62 to 1.61 ± 0.26.

KPHRIENGSTREDEEG and KQEHSYYNLDDLGHRGSEGA are within error of each other in amyloid nucleation score: 0.747 ± 0.31 for the first, -0.536 ± 1.1 for the second.

KRGKMHYCKFAHAAITVTQL and KRIIFALL are within error of each other in amyloid nucleation score: -0.515 ± 0.43 for the first, -0.337 ± 0.48 for the second.

First: KRILQMDHRLLNHNSELLKR
Second: KRRSLGLLISLVTMGDK
The amyloid nucleation score of the first is lower: -0.397 ± 0.45 for the first, 0.917 ± 0.31 for the second.

KRSMKESWVYNLCNRVYCKG and KRWIT are within error of each other in amyloid nucleation score: 0.467 ± 0.8 for the first, -0.65 ± 0.55 for the second.

KSAQEF and KSCGRLAAEYSPPRMACGHD are within error of each other in amyloid nucleation score: 0.839 ± 0.43 for the first, 1.18 ± 0.41 for the second.

Going from KSEAGYA to KSEVWSYLI, the amyloid nucleation score rises from 0.658 ± 0.51 to 4.51 ± 0.061.

Compared with KSFSCVCPWFGH, KSMKEFSKFVLMSAP is lower in amyloid nucleation score: 10.32 ± 0.031 for the first, 0.192 ± 0.46 for the second.

KSQILACYNQLP and KSRFML are within error of each other in amyloid nucleation score: 0.83 ± 0.48 for the first, 0.627 ± 0.57 for the second.

Going from KSRPSTV to KSRVVMRTHAHSALWKWPGR, the amyloid nucleation score rises from -1.68 ± 1 to 1.64 ± 0.28.

Compared with KSSVELWTFERA, KSTGDCFLKMINYYCGWS is higher in amyloid nucleation score: 1.14 ± 0.33 for the first, 6.066 ± 0.052 for the second.

KSYMARMWYMVRLMLTCLDY showed an amyloid nucleation score of 0.741 ± 0.47.

With KDPLIRDVLDNANQRLVNSV the amyloid nucleation score was “inactive”.
With KDWRGMEDFMSVFFRSGLGS the amyloid nucleation score was “inactive”.
In the case of KERAYRGNQAKKRLKTALFY, the amyloid nucleation score is reported as “inactive”.
With KINIKGFSSYAGRYHTRKIW the amyloid nucleation score was “inactive”.
With KKSFGLLENIMVSDLFPNSS the amyloid nucleation score was “inactive”.
With KNDFLNM the amyloid nucleation score was “inactive”.
In the case of KRINCPKFSNGQYGLS, the amyloid nucleation score is reported as “inactive”.
With KRVFAKVTVMDHSNSG the amyloid nucleation score was “inactive”.
With KSLNDDVKLKNKGSSPSAPW the amyloid nucleation score was “inactive”.
For KSVASVMVYYALRIPYHIEC, the amyloid nucleation score was “inactive”.
